According to patent US20230052646A1 (JJP BIOLOGICS SP Z O O, published 2023):

What was measured:
[1] = biological target: T1, membrane-bound full-length cynomolgus monkey HVEM on transiently transfected HEK293F cells (cynomolgus monkey (Macaca fascicularis)); assay: FACS, undiluted hybridoma supernatant
T1 construct: also called cynomolgus HVEM
T1 chain: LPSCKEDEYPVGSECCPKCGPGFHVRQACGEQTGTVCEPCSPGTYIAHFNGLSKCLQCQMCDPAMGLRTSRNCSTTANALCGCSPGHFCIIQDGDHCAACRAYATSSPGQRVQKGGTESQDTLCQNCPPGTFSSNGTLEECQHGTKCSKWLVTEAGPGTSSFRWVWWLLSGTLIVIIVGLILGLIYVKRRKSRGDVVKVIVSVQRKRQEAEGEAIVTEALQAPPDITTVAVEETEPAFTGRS
Experimental: (§1) Generation of human ‘full-length’ HVEM-transfected HEK293F cells (clone no. 128) is described in Example 1a. […] After 72 hours, surface cynomolgus monkey HVEM expression on transfected cells was analysed by FACS analysis. To this end, stable human full-length HVEM-transfected HEK293F cells and transient cynomolgus monkey full-length HVEM-transfected HEK293F cells were put at 10×10⁶ cells/mL in ice-chilled phosphate-buffered saline containing 0.1% BSA (Sigma)/0.05% NaN₃ (PBS/BSA/NaN₃) supplemented with 50 μg/mL human IgGs (blocking of possible Fcγ receptors; Sigma) for 10 minutes at 4° C. Then, 10 μL/tube (i.e., 0.1×10⁶ cells) of these cells were incubated with 100 μL undiluted hybridoma supernatant/tube for 30 minutes at 4° C. Phycoerythrin (PE)-conjugated mouse anti-human HVEM antibody (clone eBioHVEM-122; eBioscience) at 1:20 was run as a positive control antibody. After extensive washing in PBS/BSA/NaN₃, cells were subsequently incubated with 1:200 diluted PE-conjugated goat anti-mouse IgG Fcγ-specific antibodies (Jackson ImmunoResearch) for 30 minutes at 4° C. After extensive washing in PBS/BSA/NaN₃, cells were fixed in 2% formaldehyde in PBS/BSA/NaN₃ for 30 minutes at 4° C. Binding of antibodies was measured using a flow cytometer (model FACSCalibur; BD Biosciences).

[2] = biological target: T2, membrane-bound 'CRD1 truncated' human HVEM on transiently transfected HEK293F cells (human, UniProt Q92956 76-283); assay: FACS, undiluted hybridoma supernatant, CRD1 truncated HVEM on HEK293F
T2 construct: aa 1-19 are a mouse Ig signal peptide and are left out; Starts with CRD2; also called human HVEM deleted for CRD1; CRD1 truncated HVEM
T2 sequence: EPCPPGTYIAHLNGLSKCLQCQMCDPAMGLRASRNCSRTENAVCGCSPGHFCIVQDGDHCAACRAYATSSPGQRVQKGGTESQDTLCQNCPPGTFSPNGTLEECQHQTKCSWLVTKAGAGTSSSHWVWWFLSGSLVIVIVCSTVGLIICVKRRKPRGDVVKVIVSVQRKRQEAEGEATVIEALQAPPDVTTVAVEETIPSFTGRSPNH
Experimental: as §1, with “human” for “cynomolgus monkey”, “human ‘CRD1 truncated’” for “cynomolgus monkey full-length”

B1: mouse anti-human HVEM antibody no. 36H12 (antibody, mouse IgG1, V domains shown)
VH: EVQLQQSGAGLVKPGASVKLSCTASGFNIKDTYMHWVRQRPEQGLEWIGRIDPATANTKYDPKFQGKATLTTDTSSNTAYLQLSSLTSEDTAVYYCVTYGYDVSWFAYWGLGALVTVSA
VL: DVLMTQTPLSLPVSLGDQASISCRSSQSIVHSNGITYLEWYLQKPGQSPKLLIYKVSNRFSGVPDRFSGSGSGTDFTLKISRVEAEDLGVYYCFQGSHVPLTFGAGTKLELK
notes: mouse IgG1/kappa; also called 36H12 (mouse)
- binding result [1]: no binding
- binding result [2]: no binding
